{"source": "paper PMC7406681", "about": "“Structural characterization of the C-terminal domain of SARS-CoV-2 nucleocapsid protein”", "binders": {"B1": {"name": "17-bp dsDNA (DNA mimic of SL3/TRS RNA) (dsDNA)", "DNA 1": "TGTTCTCTAAACGAACT", "DNA 2": "AGTTCGTTTAGAGAACA"}}, "key": {"[1]": {"target": "T1, SARS-CoV-2 nucleocapsid C-terminal domain (N-CTD) (SARS-CoV-2 (Wuhan-Hu-1), UniProt P0DTC9 248-364)", "experiment": "EMSA; N-CTD:DNA molar ratios 2:1 to 10:1", "conditions": "protein: recombinant, tags: N-terminal His6 removed by TEV, residual Gly-Ala-Ser at N-terminus, chain copies: 2"}, "[2]": {"target": "T1, SARS-CoV-2 nucleocapsid C-terminal …", "experiment": "EMSA", "conditions": "protein: recombinant; tags: N-terminal His6 removed by TEV; residual Gly-Ala-Ser at N-terminus; chain copies: 2"}}, "data": [{"binder": "B1", "values": [{"measurement": "binding result", "setting": "[1]; blunt", "result": "binds"}]}, {"binder": "TGTTCTCTAAACGAACT (ssDNA)", "note": "[17-mer ssDNA (DNA mimic of SL3/TRS RNA)]", "values": [{"measurement": "binding result", "setting": "[1]", "result": "binds"}]}, {"binder": "UGUUCUCUAAACGAACU (ssRNA)", "note": "[17-mer ssRNA (5' UTR SL3/TRS)]", "values": [{"measurement": "binding result", "setting": "[2]", "result": "binds"}]}]}
